Experimental data published in patent US20150232568A1 (published 2015).
Residue numbers refer to the chain shown, from its start.

T1: murine Jag2-DSL-EGF1-4 (M27-E388) (UniProt Q9QYE5 27-388)
T1 chain: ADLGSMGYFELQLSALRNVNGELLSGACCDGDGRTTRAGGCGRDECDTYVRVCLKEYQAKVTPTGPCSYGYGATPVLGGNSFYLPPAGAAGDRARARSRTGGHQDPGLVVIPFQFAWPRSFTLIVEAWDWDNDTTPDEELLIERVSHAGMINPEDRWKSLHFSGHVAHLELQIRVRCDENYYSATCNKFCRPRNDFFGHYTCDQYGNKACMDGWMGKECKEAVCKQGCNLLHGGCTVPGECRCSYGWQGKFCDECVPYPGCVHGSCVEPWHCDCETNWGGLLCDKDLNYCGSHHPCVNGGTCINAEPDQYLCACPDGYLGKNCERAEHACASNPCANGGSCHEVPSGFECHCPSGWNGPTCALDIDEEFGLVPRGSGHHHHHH

T2: human Jag2-DSL-EGF1-4 (R2-E388) (UniProt Q9Y219 24-388)
T2 chain: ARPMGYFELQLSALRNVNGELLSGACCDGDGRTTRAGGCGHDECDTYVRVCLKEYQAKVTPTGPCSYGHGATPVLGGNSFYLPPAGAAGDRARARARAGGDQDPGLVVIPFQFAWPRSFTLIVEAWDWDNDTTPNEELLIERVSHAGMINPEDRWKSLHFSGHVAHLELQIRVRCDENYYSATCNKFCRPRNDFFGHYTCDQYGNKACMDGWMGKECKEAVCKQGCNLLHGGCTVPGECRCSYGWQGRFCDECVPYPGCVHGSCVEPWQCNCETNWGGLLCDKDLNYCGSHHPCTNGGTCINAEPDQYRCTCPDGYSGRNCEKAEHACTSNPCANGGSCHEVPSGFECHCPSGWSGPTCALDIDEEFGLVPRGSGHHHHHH

B1: D-1 (antibody, V domains shown)
VH: EVQLVESGGGLVQPGGSLRLSCAASGFTFTSNYMSWVRQAPGKGLEWVSTIWYQSGTTDYADSVKGRFTISADTSKNTAYLQMNSLRAEDTAVYYCARDSPWPSKGFGMDVWGQGTLVTVSS
VL: DIQMTQSPSSLSASVGDRVTITCRASQSISSYLAWYQQKPGKAPKLLIYGASSRASGVPSRFSGSGSGTDFTLTISSLQPEDFATYYCQQYLSSPITFGQGTKVEIK
B2: C-1 (antibody, V domains shown)
VH: EVQLVESGGGLVQPGGSLRLSCAASGFTFTNSDIHWVRQAPGKGLEWVGGITPADGYTDYADSVKGRFTISADTSKNTAYLQMNSLRAEDTAVYYCARSYWSSSPGSAFDYWGQGTLVTVSS
VL: DIQMTQSPSSLSASVGDRVTITCRASQDVSTAVAWYQQKPGKAPKLLIYSASFLYSGVPSRFSGSGSGTDFTLTISSLQPEDFATYYCQQSYISPSTFGQGTKVEIK
B3: A-2 (antibody, V domains shown)
VH: EVQLVESGGGLVQPGGSLRLSCAASGFTFSNYGIHWVRQAPGKGLEWVGWITGNGGYSDYADSVKGRFTISADTSKNTAYLQMNSLRAEDTAVYYCARAGSWFAYWGQGTLVTVSS
VL: B2 VL with I93T, S94T, S96P
B4: B (antibody, V domains shown)
VH: EVQLVESGGGLVQPGGSLRLSCAASGFTFTSYDIHWVRQAPGKGLEWVGGISPADGDTDYANSVKGRFTISADTSKNTAYLQMNSLRAEDTAVYYCARNDYDVRSVGSGMDYWGQGTLVTVSS
VL: B2 VL with I93T, S94T, S96P
B5: B-3 (antibody, V domains shown)
VH: B4 VH with S105F
VL: B2 VL with Y92F, I93T, S94A, S96P
B6: C (antibody, V domains shown)
VH: B2 VH with S102N, S103N, A108G
VL: B2 VL with I93T, S94T, S96P
B7: A (antibody, V domains shown)
VH: B3 VH with G53P, N54D, S58T
VL: B2 VL with I93T, S94T, S96P
B8: B-1 (antibody, V domains shown)
VH: B4 VH with S105T
VL: B2 VL with I93T, P95A, S96P
B9: D-2 (antibody, V domains shown)
VH: B1 VH with T28S, F29V, T30K, S31P, N32M, S35T, D99S, P103S, S104G, K105E
VL: B1 VL with L92S, I96L
B10: B-2 (antibody, V domains shown)
VH: B4 VH
VL: B2 VL with Y92W, I93T, S94A, S96P
B11: D (antibody, V domains shown)
VH: B1 VH with D99S, P103S, S104G, K105E
VL: B1 VL with L92Y, I96L

Experiments:
Assay in all cases: Biacore (SPR)
[1] = molecular target: T1, murine Jag2-DSL-EGF1-4 (M27-E388)
human Jag1-DSL-EGF1-4 = human Jag1-DSL-EGF1-4 (UniProt P78504 34-377)
[2] = molecular target: T2, human Jag2-DSL-EGF1-4 (R2-E388)

Row | Binder | Kd [1] | Kd (human Jag1-DSL-EGF1-4) | Kd [2]
1 | B1 | 14 nM | 0.52 nM | 4.6 nM
2 | B2 | 0.73 nM | 0.31 nM | 0.12 nM
3 | B3 | – | 0.3 nM | –
4 | B4 | 1 nM | – | 1 nM
5 | B5 | 0.3 nM | – | –
6 | B6 | – | 2.3 nM | –
7 | B7 | – | 94 nM | –
8 | B8 | 1.1 nM | – | –
9 | B9 | – | 1.1 nM | –
10 | B10 | 0.0025 nM | – | –
11 | B11 | – | 13 nM | –
